From patent US12173052B2 come the findings set out here.

In experiment [1] the target is loop D variants (YU-2 gp120, residues 279gp120 and 280gp120).
Experiment [2] concerns the target V5 variants (YU-2 gp120, residues 458gp120 and 459gp120).

On to 45-46m7 (45-46m2+HC W47V) (antibody), for which the values for the IC50, in vitro pseudovirus neutralization in experiment [1] and in experiment [2] were > 0.1 µg/mL and < 0.01 µg/mL, respectively.

In the case of NIH45-46^G54W(HC)S28Y(LC) (antibody), the IC50, in vitro pseudovirus neutralization was > 0.1 µg/mL in experiment [1] and < 0.01 µg/mL in experiment [2].
